This note sets out measurements from patent US20190127446A1.

The target of assay [1] is soluble human Fcγ-receptor IIIA (158F-allele) (human) (UniProt P08637). The experiment in a line: ratio of SPR KA values.
In assay [2] the target is soluble human Fcγ-receptor IIA (131H-allele) (human) (UniProt P12318). In words: ratio of SPR KA values.
The target of assay [3] is soluble human Fcγ-receptor IIIA (158F-allele) (human) (UniProt P08637). In words: SPR, soluble human Fcγ-receptor and human IgG isotype.
In assay [4] the target is soluble human Fcγ-receptor IIA (131H-allele) (human) (UniProt P12318). The assay is described as above.
For assay [5], the target named is soluble human Fcγ-receptor IIB (human) (UniProt P31994). The assay is described as above.
For assay [6], the target named is soluble mouse Fcγ-receptor III (mouse) (UniProt P08508). The experiment in a line: ratio of SPR KA values.
Assay [7] shares this target. In words: SPR (Biacore), soluble receptor injected over immobilized antibody, 1:1 Langmuir.
Assay [8] has as its target soluble mouse Fcγ-receptor IIB (mouse) (UniProt P08101). The assay is described as above.
Assay [9] deals with soluble mouse Fcγ-receptor IV (mouse). In words: SPR. (In general: Surface plasmon resonance follows binding to a sensor surface in real time, without labels.)
Assay [10] shares this target. In words: ratio of SPR KA values.
In assay [11] the target is soluble version of the extracellular domain of gp75. In words: SPR; soluble gp75 extracellular domain injected over immobilized antibody.
Assay [12] deals with soluble mouse Fcγ-receptor IV (mouse). The experiment in a line: SPR (Biacore), soluble receptor injected over immobilized antibody, 1:1 Langmuir.
Assay [13] addresses soluble mouse Fcγ-receptor I (mouse) (UniProt P26151). Described as above.
Assay [14] concerns the target soluble mouse Fcγ-receptor IIB (mouse) (UniProt P08101). In words: SPR.

Chain of soluble human Fcγ-receptor IIB (human) (P31994 43-217): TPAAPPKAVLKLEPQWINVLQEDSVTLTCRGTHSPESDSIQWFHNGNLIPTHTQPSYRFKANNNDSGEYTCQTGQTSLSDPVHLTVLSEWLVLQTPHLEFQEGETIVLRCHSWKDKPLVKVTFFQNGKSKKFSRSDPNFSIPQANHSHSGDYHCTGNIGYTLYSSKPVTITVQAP
Chain of soluble mouse Fcγ-receptor III (mouse) (P08508 other isoform, or with tags, fused parts or gaps): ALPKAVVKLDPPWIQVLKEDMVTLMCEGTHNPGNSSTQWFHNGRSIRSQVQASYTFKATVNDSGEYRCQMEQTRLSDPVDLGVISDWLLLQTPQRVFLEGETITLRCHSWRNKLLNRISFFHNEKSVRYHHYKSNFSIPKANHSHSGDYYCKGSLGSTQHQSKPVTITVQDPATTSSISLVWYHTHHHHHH
Chain of soluble human Fcγ-receptor IIA (131H-allele) (human) (P12318 34-217): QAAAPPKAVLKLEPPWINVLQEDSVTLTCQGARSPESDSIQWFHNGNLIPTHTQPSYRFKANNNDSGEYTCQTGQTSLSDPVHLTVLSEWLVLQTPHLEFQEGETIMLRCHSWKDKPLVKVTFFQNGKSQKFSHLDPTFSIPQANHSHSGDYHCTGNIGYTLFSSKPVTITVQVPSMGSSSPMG
Chain of soluble mouse Fcγ-receptor IIB (mouse) (P08101 other isoform, or with tags, fused parts or gaps): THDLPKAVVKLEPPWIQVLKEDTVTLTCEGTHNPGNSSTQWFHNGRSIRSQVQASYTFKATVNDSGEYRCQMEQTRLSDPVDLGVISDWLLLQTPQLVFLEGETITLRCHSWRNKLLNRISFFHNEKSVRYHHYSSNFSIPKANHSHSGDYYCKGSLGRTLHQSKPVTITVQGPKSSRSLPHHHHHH
Chain of soluble human Fcγ-receptor IIIA (158F-allele) (human) (P08637 17-208): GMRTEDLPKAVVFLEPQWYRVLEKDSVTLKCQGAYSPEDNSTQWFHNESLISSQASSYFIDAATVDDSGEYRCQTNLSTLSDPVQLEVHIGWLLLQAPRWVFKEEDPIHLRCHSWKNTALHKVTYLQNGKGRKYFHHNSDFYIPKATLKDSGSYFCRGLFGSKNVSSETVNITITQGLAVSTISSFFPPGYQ
Chain of soluble mouse Fcγ-receptor I (mouse) (P26151 other isoform, or with tags, fused parts or gaps): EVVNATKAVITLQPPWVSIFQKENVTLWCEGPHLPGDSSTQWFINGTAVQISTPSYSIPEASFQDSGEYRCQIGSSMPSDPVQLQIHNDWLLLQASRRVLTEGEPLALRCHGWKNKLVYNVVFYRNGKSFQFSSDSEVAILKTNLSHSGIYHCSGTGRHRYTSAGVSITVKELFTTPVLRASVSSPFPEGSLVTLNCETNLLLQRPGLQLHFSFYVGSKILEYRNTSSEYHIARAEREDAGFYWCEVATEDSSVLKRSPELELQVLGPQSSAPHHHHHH

Turning to “human IgG2 antibody isotype lacking fucose”, in assay [1], the A/I IIIA/IIB (ratio of affinity to that for FcγRIIB) worked out at 5.7. Besides, the A/I IIA/IIB (ratio of affinity to that for FcγRIIB) in assay [2] was determined as 5.3. Moreover, the Ka in assay [3] stood at 140000 M⁻¹; in assay [4] it was 130000 M⁻¹; in assay [5], 26000 M⁻¹.

Consider human IgG2 antibody isotype, for which, in [1], the A/I IIIA/IIB (ratio of affinity to that for FcγRIIB) came out at 0.4. For the same substance, the A/I IIA/IIB (ratio of affinity to that for FcγRIIB) in assay [2] stood at 4.5. Moreover, the Ka in [3] was found to be 14000 M⁻¹; in assay [4], 140000 M⁻¹; in [5] it was 30000 M⁻¹.

Regarding “TA99-IgG1 deficient in fucose (antibody)”, in [6], the A/I (ratio of affinity for sFcγRIII to that for FcγRIIB) was 0.4. The Ka came out at 510000 M⁻¹ in [7] and 1.32e+06 M⁻¹ in assay [8].

What is called Kd is the equilibrium constant for the complex coming apart. A low value points to tighter binding. Consider “TA99-IgG2a (fucose-containing) (antibody)”, for which the fold higher affinity than to FcγRIIB in [9] worked out at 10 fold. In addition, in [10], the A/I (ratio of sFcγRIV to sFcγRIIB) came to 69. For the same substance, the Ka in assay [11] is 1.6e+09 M⁻¹; in assay [12], 2.9e+07 M⁻¹; in [13], 1.6e+08 M⁻¹; in assay [7], 680000 M⁻¹; in [8] it was 420000 M⁻¹. The Kd in assay [11] is 0.61 nM.

For the substance “TA99-IgG2b deficient in fucose (antibody)”, in assay [10], the A/I (ratio of sFcγRIV to sFcγRIIB) amounted to 20. Moreover, the Ka in [12] was 2.03e+08 M⁻¹; in assay [7], 1.06e+06 M⁻¹; in [8] it was 1e+07 M⁻¹.

On to “human IgG1 antibody isotype lacking fucose”, for which the A/I IIIA/IIB (ratio of affinity to that for FcγRIIB) in assay [1] was found to be 76. The A/I IIA/IIB (ratio of affinity to that for FcγRIIB) in assay [2] is 3.1. Further, the figures for the Ka in assay [3], in assay [4] and in assay [5] were 6e+06 M⁻¹, 240000 M⁻¹ and 78000 M⁻¹, respectively.

“TA99-IgG2b (fucose-containing) (antibody)” returned a fold higher affinity than to FcγRIIB in assay [9] of 10 fold. The A/I (ratio of sFcγRIV to sFcγRIIB) in assay [10] was 7. The Ka worked out at 1.8e+09 M⁻¹ in assay [11], 1.7e+07 M⁻¹ in assay [12], 640000 M⁻¹ in [7] and 2.23e+06 M⁻¹ in assay [8]. In assay [11], this substance yielded a Kd of 0.57 nM.

In the case of “TA99-IgG1 (fucose-containing) (antibody)”, the fold higher affinity than to FcγRIII in [14] worked out at 10 fold. In [6], the A/I (ratio of affinity for sFcγRIII to that for FcγRIIB) worked out at 0.1. Besides, the results for the Ka in [11], in [7] and in assay [8] were 2.7e+09 M⁻¹, 310000 M⁻¹ and 3.33e+06 M⁻¹, respectively. This substance yielded an equilibrium dissociation constant (Kd) in [11] of 0.38 nM.

Regarding human IgG4 antibody isotype, in [2], the A/I IIA/IIB (ratio of affinity to that for FcγRIIB) came out at 0.7. For the same substance, the Ka in assay [4] was found to be 35000 M⁻¹; in assay [5], 48000 M⁻¹.

In [11], TA99-IgG3 (antibody) registered a Ka of 1.5e+09 M⁻¹ and a Kd of 0.66 nM.

“TA99-IgG2a deficient in fucose (antibody)”: in assay [10], the A/I (ratio of sFcγRIV to sFcγRIIB) is 92. Also, the Ka in assay [12] came out at 3.06e+08 M⁻¹; in assay [13], 1.8e+08 M⁻¹; in assay [7], 1.54e+06 M⁻¹; in assay [8], 3.34e+06 M⁻¹.

As to human IgG1 antibody isotype, the A/I IIIA/IIB (ratio of affinity to that for FcγRIIB) in assay [1] is 5.5. Further, the A/I IIA/IIB (ratio of affinity to that for FcγRIIB) in assay [2] came out at 3.1. Besides, the results for the Ka in assay [3], in assay [4] and in [5] were 430000 M⁻¹, 250000 M⁻¹ and 78000 M⁻¹, respectively.
